Laboratory results from patent US20210095036A1 (University of Pennsylvania, published 2021).
Where a chain is given by its changes, count along the chain named.

T1: GFRα4 isoform a (GFRα4a), Fc fusion with 6 His (human)
T1 construct: the entry holds the whole fusion; also called GFR4α4a; immobilized GFRα4 isoform a
T1 chain: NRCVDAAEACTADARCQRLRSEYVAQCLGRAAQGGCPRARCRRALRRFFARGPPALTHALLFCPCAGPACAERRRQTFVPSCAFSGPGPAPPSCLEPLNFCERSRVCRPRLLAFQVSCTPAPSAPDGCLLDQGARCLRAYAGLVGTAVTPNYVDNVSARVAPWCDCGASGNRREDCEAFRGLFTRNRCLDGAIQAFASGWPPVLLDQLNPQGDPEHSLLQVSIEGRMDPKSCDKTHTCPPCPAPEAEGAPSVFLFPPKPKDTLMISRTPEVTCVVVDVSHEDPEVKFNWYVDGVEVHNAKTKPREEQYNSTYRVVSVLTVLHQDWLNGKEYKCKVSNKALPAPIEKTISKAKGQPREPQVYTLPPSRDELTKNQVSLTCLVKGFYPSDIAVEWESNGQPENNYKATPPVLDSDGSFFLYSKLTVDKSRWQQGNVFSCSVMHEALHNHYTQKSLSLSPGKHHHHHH

B1: 25.H1.L1m3 (scFv)
scFv: QLVLTQSPSASASLGASVKLTCTLSSAHKTYTIDWYQQQPEKGPRYLMQVKSDGSYTKGTGVPDRFSGSSSGADRYLTISSLQSEDEADYYCGADDNGGYVFGGGTQLTVLGGGSSRSSSSGGGGSGGGGQVQLQESGPGLVKPSETLSLTCAVSGYSISRHALTWIRQPPGKGLEWIGAIDNAGTTYYASWAKSRVTISVDTSKNQFSLKLSSVTAADTAVYYCARVFYDINSGYYLDGMDLWGPGTLVTVSS
notes: pIII not in the entry; order Vλ-linker-VH; also called scFv 25
B2: 14.H1.L1m1 (scFv)
scFv: B1 scFv with L2F, L111T
notes: pIII not in the entry; order Vλ-linker-VH; also called scFv 14
B3: 22.H1.L1m2 (scFv)
scFv: B1 scFv with L2F, Y36H, V62I, D74E
notes: pIII not in the entry; order Vλ-linker-VH; also called scFv 22
B4: 26.H1.L1m4 (scFv)
scFv: B1 scFv with D34A, Y36H
notes: pIII not in the entry; order Vλ-linker-VH; also called scFv 26
B5: 10.H2.L1m1 (scFv)
scFv: QFVLTQSPSASASLGASVKLTCTLSSAHKTYTIDWYQQQPEKGPRYLMQVKSDGSYTKGTGVPDRFSGSSSGADRYLTISSLQSEDEADYYCGADDNGGYVFGGGTQLTVTGGGSSRSSSSGGGGSGGGGEVQLVESGGGLVQPGGSLRLSCAASGFTFSRHALTWVRQAPGKGLEWVSAIDNAGTTYYASWAKSRFTISRDNAKNSLYLQMNSLRAEDTAVYYCARVFYDINSGYYLDGMDLWGPGTLVTVSS
notes: pIII not in the entry; order Vλ-linker-VH; also called scFv 10
B6: 12.H2m1.L1m1 (scFv)
scFv: QFVLTQSPSASASLGASVKLTCTLSSAHKTYTIDWYQQQPEKGPRYLMQVKSDGSYTKGTGVPDRFSGSSSGADRYLTISSLQSEDEADYYCGADDNGGYVFGGGTQLTVTGGGSSRSSSSGGGGSGGGGEQSVKESGGGLVQPGGSLRLSCAASGFTLSRHALTWVRQAPGKGLEWIGAIDNAGTTYYASWAKSRFTISRNTDLHTVYLQMNSLRAEDTAVYFCARVFYDINSGYYLDGMDLWGPGTLVTVSS
notes: pIII not in the entry; order Vλ-linker-VH; The printed entry has an E before QSVKE of the VH; also called scFv 12
B7: 19.H2.L2m2 (scFv)
scFv: QFVLTQPPSASGTPGQRVTISCTLSSAHKTYTIDWYQQLPGTAPKLLIYVKSDGSYTKGTGVPDRFSGSSSGADASLAISGLQSEDEADYYCGADDNGGYVFGGGTQLTVLGGGSSRSSSSGGGGSGGGGEVQLVESGGGLVQPGGSLRLSCAASGFTFSRHALTWVRQAPGKGLEWVSAIDNAGTTYYASWAKSRFTISRDNAKNSLYLQMNSLRAEDTAVYYCARVFYDINSGYYLDGMDLWGPGTLVTVSS
notes: pIII not in the entry; order Vλ-linker-VH; also called scFv 19
B8: 6.H2.L2m1 (scFv)
scFv: B7 scFv with A75R, S76Y, L111T
notes: pIII not in the entry; order Vλ-linker-VH; also called scFv 6
B9: 20.H2.L2m3 (scFv)
scFv: B7 scFv with F2S, S70K, A73T, D74S
notes: pIII not in the entry; order Vλ-linker-VH; also called scFv 20
B10: 8.H2m1.L2m1 (scFv)
scFv: QFVLTQPPSASGTPGQRVTISCTLSSAHKTYTIDWYQQLPGTAPKLLIYVKSDGSYTKGTGVPDRFSGSSSGADRYLAISGLQSEDEADYYCGADDNGGYVFGGGTQLTVTGGGSSRSSSSGGGGSGGGGEQSVKESGGGLVQPGGSLRLSCAASGFTLSRHALTWVRQAPGKGLEWIGAIDNAGTTYYASWAKSRFTISRNTDLHTVYLQMNSLRAEDTAVYFCARVFYDINSGYYLDGMDLWGPGTLVTVSS
notes: pIII not in the entry; order Vλ-linker-VH; The printed entry has an E before QSVKE of the VH; also called scFv 8
B11: 28.H1.L3m5 (scFv)
scFv: QSALTQPASVSGSPGQSITISCTGTSAHKTYTVSWYQQHPGKAPKLMIYVKSDGSYTKGTGVPNRFSGSSSGADRYLTISGLQAEDEADYYCGADDNGGYVFGGGTQLTVLGGGSSRSSSSGGGGSGGGGQVQLQESGPGLVKPSETLSLTCAVSGYSISRHALTWIRQPPGKGLEWIGAIDNAGTTYYASWAKSRVTISVDTSKNQFSLKLSSVTAADTAVYYCARVFYDINSGYYLDGMDLWGPGTLVTVSS
notes: pIII not in the entry; order Vλ-linker-VH; also called scFv 28
B12: 18.H1.L3m3 (scFv)
scFv: B11 scFv with V33I, S34D, P63S, S70K, A73N, D74T, R75A, Y76S
notes: pIII not in the entry; order Vλ-linker-VH; also called scFv 18
B13: 27.H1.L3m4 (scFv)
scFv: B11 scFv with L46Y, M47L, I48M, Y49Q
notes: pIII not in the entry; order Vλ-linker-VH; also called scFv 27
B14: 4.H1m1.L3m1 (scFv)
scFv: QFVLTQPASVSGSPGQSITISCTLSSAHKTYTIDWYQQHPGKAPKYLMQVKSDGSYTKGTGVPNRFSGSSSGADRYLTISGLQAEDEADYVCGADDNGGYVFGGGTQLTVTGGGSSRSSSSGGGGSGGGGQQSVKESGPGLVKPSETLSLTCAVSGFSLSRHALTWVRQPPGKGLEWIGAIDNAGTTYYASWAKSRVTISRNTDLHTVSLKLSSVTAADTAVYFCARVFYDINSGYYLDGMDLWGPGTLVTVSS
notes: pIII not in the entry; order Vλ-linker-VH; also called scFv 4
B15: 24.H2.L3m1 (scFv)
scFv: QFVLTQPASVSGSPGQSITISCTLSSAHKTYTIDWYQQHPGKAPKYLMQVKSDGSYTKGTGVPNRFSGSSSGADRYLTISGLQAEDEADYVCGADDNGGYVFGGGTQLTVTGGGSSRSSSSGGGGSGGGGEVQLVESGGGLVQPGGSLRLSCAASGFTFSRHALTWVRQAPGKGLEWVSAIDNAGTTYYASWAKSRFTISRDNAKNSLYLQMNSLRAEDTAVYYCARVFYDINSGYYLDGMDLWGPGTLVTVSS
notes: pIII not in the entry; order Vλ-linker-VH; also called scFv 24
B16: 29.H2.L1m3 (scFv)
scFv: B5 scFv with F2L
notes: pIII not in the entry; order Vλ-linker-VH; The printed VL ends TVT; also called scFv 29
B17: 21.H2.L1m2 (scFv)
scFv: B5 scFv with Y36H, V62I, D74E, T111L
notes: pIII not in the entry; order Vλ-linker-VH; also called scFv 21
B18: 16.H1m1.L1m1 (scFv)
scFv: QFVLTQSPSASASLGASVKLTCTLSSAHKTYTIDWYQQQPEKGPRYLMQVKSDGSYTKGTGVPDRFSGSSSGADRYLTISSLQSEDEADYYCGADDNGGYVFGGGTQLTVTGGGSSRSSSSGGGGSGGGGQQSVKESGPGLVKPSETLSLTCAVSGFSLSRHALTWVRQPPGKGLEWIGAIDNAGTTYYASWAKSRVTISRNTDLHTVSLKLSSVTAADTAVYFCARVFYDINSGYYLDGMDLWGPGTLVTVSS
notes: pIII not in the entry; order Vλ-linker-VH; also called scFv 16
B19: 17.H1.L3m2 (scFv)
scFv: B11 scFv with S2F, A3V, G24L, T25S, V33I, S34D, Y49Q, P63S
notes: pIII not in the entry; order Vλ-linker-VH; also called scFv 17
B20: 13.H1.L1 (scFv)
scFv: B1 scFv with D34A, Y36H, Q49K, T57S, T60D, V62I, D74E, Q107K
notes: pIII not in the entry; order Vλ-linker-VH; also called scFv 13

Target: T1, GFRα4 isoform a (GFRα4a), Fc fusion …
Assay: phage ELISA, immobilized GFRα4a; first token of the cell
Description: (§1) To perform these ELISAs, the GFRα4a isoform comprising a portion of GFRα4a (Asn24 -Ser245, UniProt accession #Q9GZZ7-2) was used, followed by a Factor Xa cleavage site/linker, a portion of optimized IgG1 Fc domain (Pro100-Lys330), and 6 His residues for purification. The GFRα4b isoform comprised a portion of GFRα4b (Asn24-Va1274, UniProt #Q9GZZ7-1), followed by a TEV cleavage site linker, and a portion of human IgG1 Fc domain (Asp104-Lys330).
B1: binds.
B2: binds.
B3: no binding.
B4: no binding.
B5: binds.
B6: binds.
B7: no binding.
B8: binds.
B9: no binding.
B10: binds.
B11: no binding.
B12: no binding.
B13: no binding.
B14: binds.
B15: binds.
B16: binds.
B17: no binding.
B18: binds.

The binders below were run against T2, GFRα4 isoform b (GFRα4b), Fc fusion (human) (assay: phage ELISA, immobilized GFRα4b; second token of the cell).
T2 construct: the entry holds the whole fusion; also called GFR4α4b; GFRα4-Fc
Description: as §1
B1: binds.
B2: binds.
B3: no binding.
B4: no binding.
B5: binds.
B6: binds.
B7: no binding.
B8: binds.
B9: no binding.
B10: binds.
B11: no binding.
B19: binds.
B12: no binding.
B13: no binding.
B14: binds.
B15: binds.
B16: binds.
B17: no binding.
B18: binds.

Target: T1, GFRα4 isoform a (GFRα4a), Fc fusion …
Assay: phage ELISA, immobilized GFRα4a; first token of the cell (GFRα4b: NT)
Description: as §1
B20: no binding.
